Laboratory results: paper PMC4362373

Target: recombinant human IL-1RI Fc chimera (human) (UniProt P14778)
Experiment: ELISA

Chain of UniProt P14778 (P14778 18-336, change not shown): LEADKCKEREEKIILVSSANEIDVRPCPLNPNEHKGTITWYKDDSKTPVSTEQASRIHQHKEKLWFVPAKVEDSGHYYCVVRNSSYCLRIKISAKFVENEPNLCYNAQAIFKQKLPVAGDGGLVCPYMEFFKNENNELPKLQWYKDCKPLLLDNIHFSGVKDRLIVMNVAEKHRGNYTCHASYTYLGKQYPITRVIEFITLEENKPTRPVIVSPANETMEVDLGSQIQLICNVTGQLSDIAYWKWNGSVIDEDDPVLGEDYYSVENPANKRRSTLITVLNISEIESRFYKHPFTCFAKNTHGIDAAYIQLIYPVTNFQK

fold reduction of affinity against wild-type IL-1β: 3500 fold
Substance: hIL-1b(D145K) (ligand)
